According to patent US20240342207, “MODIFIED NUCLEIC ACID COMPOSITIONS AND ASSOCIATED METHODS FOR TREATMENT OF PHENYLKETONURIA” (BOARD OF REGENTS, THE UNIVERSITY OF TEXAS SYSTEM, published 2024):

Assays:
Conditions in all cases: tags: His-tag, E. coli; stem-loop
[1] = target: T1, PAH F39L (Homo sapiens, UniProt P00439 P00439:1-452, F39L); assay: EMSA; one of 13 of 17 binding mutants; affinity not decreased
T1 sequence: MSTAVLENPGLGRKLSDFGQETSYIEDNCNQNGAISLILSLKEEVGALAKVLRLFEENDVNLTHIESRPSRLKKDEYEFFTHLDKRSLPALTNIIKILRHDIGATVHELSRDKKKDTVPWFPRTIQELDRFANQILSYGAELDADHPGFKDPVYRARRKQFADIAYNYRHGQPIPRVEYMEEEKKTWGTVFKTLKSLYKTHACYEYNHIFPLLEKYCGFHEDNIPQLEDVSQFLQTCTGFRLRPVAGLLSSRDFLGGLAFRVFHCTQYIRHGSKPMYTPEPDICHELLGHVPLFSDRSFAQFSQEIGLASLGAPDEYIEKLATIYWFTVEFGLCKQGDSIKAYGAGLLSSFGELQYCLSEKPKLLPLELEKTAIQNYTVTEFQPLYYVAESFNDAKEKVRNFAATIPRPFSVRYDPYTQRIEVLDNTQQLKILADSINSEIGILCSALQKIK

[2] = target: T2, PAH R408W (Homo sapiens, UniProt P00439 P00439:1-452, R408W); assay: as above
T2 sequence: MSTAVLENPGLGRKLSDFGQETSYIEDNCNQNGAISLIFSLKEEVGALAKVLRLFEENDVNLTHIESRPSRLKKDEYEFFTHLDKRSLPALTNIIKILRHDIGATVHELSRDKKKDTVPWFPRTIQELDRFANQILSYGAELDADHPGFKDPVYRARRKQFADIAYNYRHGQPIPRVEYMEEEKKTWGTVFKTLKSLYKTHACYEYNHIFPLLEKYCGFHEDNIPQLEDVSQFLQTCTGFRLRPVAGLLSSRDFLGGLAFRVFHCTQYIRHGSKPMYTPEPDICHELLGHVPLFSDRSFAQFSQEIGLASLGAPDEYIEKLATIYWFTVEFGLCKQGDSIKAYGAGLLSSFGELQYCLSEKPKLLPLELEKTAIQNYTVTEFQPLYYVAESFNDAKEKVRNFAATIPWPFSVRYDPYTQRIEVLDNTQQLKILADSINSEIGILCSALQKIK

[3] = target: T3, PAH Y417H (Homo sapiens, UniProt P00439 P00439:1-452, Y417H); assay: EMSA; one of 13 of 17 binding mutants (identity from p198 list)
T3 sequence: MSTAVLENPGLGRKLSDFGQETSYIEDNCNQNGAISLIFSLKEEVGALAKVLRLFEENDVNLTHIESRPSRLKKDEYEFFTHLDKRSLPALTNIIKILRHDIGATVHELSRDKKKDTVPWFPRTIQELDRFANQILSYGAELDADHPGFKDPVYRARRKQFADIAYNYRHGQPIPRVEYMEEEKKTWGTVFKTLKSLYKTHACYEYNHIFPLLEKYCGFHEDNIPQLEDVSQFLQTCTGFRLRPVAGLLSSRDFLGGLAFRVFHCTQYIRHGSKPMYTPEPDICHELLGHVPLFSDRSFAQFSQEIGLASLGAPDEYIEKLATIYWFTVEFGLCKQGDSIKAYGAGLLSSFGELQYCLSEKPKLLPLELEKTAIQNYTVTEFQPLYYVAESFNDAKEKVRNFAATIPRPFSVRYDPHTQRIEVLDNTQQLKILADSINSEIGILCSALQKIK
Text: (§1) It was reasoned that supplementing lncRNAs might improve the catalytic activities of the PAH mutants, leading to reduced serum Phe concentrations and improved symptoms in patients with PKU. Scramble (Scr) and HULC mimics representing wild-type HULC nt. 181-201 and HULC A191G mutated sequences were designed for the following studies. 17 PAH mutants that were identified from patients with PKU and are known to affect the enzymatic activity of PAH (21, 22) were selected, and bacterially-expressed wild-type and mutant PAH (FIG. 10 and see FIG. S13A in Li et al. 2021) were collected. […] The denatured wild-type PAH proteins were included as a negative control.
(§2) RNA Electrophoretic Mobility Shift Assay (EMSA). The gel mobility shift assay was performed as previously described (42). Briefly, 500 ng recombinant His-tagged wild-type PAH or mutants were incubated with 0.035 μmol labeled probe in a RNA-protein binding buffer [(50 mM Tris-HCl 7.9, 10% glycerol, 100 mM KCl, 5 mM MgCl₂, 10 mM (3-ME, 0.1% NP40] for 30 min at 30° C. For cold RNA competition, 0.035 μmol radiolabeled RNA probes were first mixed with 7 μmol cold RNA competitors and then subjected to the gel shift assay.

[4] = target: T4, PAH Y414C (Homo sapiens, UniProt P00439 P00439:1-452, Y414C); assay: as above
T4 sequence: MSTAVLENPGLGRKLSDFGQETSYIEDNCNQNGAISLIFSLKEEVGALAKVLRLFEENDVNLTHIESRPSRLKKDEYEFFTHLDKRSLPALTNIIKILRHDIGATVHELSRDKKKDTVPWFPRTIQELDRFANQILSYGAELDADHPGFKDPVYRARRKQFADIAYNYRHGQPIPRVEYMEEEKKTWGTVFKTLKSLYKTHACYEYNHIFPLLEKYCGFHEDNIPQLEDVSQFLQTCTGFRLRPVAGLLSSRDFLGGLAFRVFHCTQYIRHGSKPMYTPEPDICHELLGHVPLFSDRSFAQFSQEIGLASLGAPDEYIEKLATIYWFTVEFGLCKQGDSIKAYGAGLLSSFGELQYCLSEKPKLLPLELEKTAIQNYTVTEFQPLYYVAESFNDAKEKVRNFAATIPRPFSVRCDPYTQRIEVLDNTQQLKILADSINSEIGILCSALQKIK
Text: as §1, §2

Measured: binding result

CAAAAUGCAUAUGUAUCUUUG (ssRNA) [HULC 181-201 mimic]
binds: [1] | [2] | [3] | [4]
